Substrate in data set [1]: CC(=O)N[C@H]1[C@H](Oc2ccc([N+](=O)[O-])cc2)O[C@H](CO)[C@@H](O)[C@@H]1O
As to the kind of experiment: purified protein. The class given is biochemical, Ostrinia furnacalis. As to conditions: Britton-Robinson buffer (pH of kinetics not given), 25°C, 30 min.

Substrate in data set [2]: CC(=O)N[C@H]1[C@H](Oc2ccc([N+](=O)[O-])cc2)O[C@H](CO)[C@H](O)[C@@H]1O
As to the kind of experiment: purified protein. The data set is classed as biochemical, Ostrinia furnacalis. As to conditions: Britton-Robinson buffer (pH of kinetics not given), 25°C, 30 min.

B1: OfHex3 (Ostrinia furnacalis) (protein)
chain: NENEIKDPTPIVYEPSWVFKCIPNVGCQRAAHPQSMMTTNSSHVFYDSIDLCRTVCGRFGGIWPKPLTAGLSMQTVQMHPTHLRYDLSDVPAEARELIAQMTQVASSNLLAECRGNVTEVVDTPVVVYLVVTSENLDLTWDTDEKYDLDVQTKNQKVSVTITAATVYGARHGLETFTQLVTADRPEYSDQTRCALRVISGARIKDYPAYRHRGLVLDTSRHFIPMKDIKRTIDGMAASKLNVFHWHVTDSHSFPLESTRVPQFTRYGAYSSSEIYSAEEVRQLIKYAQIRGVRVVIEIDSPAHAGNGWQWGQDYGFGDLAVCVNTEPWRGLCIQPPCGQLNPANPTMYRVLRNLYKDLAEALPKPALFHMGGDEVFFPCWNSSEQIRAYMQEKGLNTTTEGFLRLWSEFHETILSIWDEELKAIGTDAQPVILWSSALTKSNYVQRFLNKDRYVIEVWEPLDSPLLMELLRLGYRTISVPKDVWYLDHGFWGSTKFSNWRRMYAYILPKSQHMLGGEVAMWSEYVDKEVLDTRIWPRAAAVAERLWADPMSTASAAEPRLQRFRSRLQARGLRPDAMSPAWCEQHDGRCL
notes: mature protein without signal peptide (residues 1-18 removed; ORF 609 residues); C-terminal 6xHis, N-terminal alpha-factor secretion signal; Pichia pastoris GS115; glycosylated, 75 kDa on SDS-PAGE
What is called Km is the concentration of substrate that gives half-maximal velocity. The kcat is the maximal rate divided by the concentration of active sites. As usually defined, the kcat/Km is the turnover number divided by the Michaelis constant. Regarding B1, in the data set “purified protein [1]”, the Km turned out to be 1627 µM, the kcat was 27.7 s⁻¹ and the kcat/Km was 17000 M⁻¹ s⁻¹. For the same protein, in the data set “purified protein [2]”, the Km worked out at 2673 µM, the kcat was 5.63 s⁻¹ and the kcat/Km was determined as 2110 M⁻¹ s⁻¹.

For the origin of these results see publication PMC3741120, “A Sperm–Plasma β-N-Acetyl-D-Hexosaminidase Interacting with a Chitinolytic β-N-Acetyl-D-Hexosaminidase in Insect Molting Fluid” (PLoS ONE, 2013).
